Results from patent US6541212.

Target: T1, recombinant secreted soluble PSCA with a C-terminal 6XHis and MYC tag (human) (UniProt O43653)
T1 sequence: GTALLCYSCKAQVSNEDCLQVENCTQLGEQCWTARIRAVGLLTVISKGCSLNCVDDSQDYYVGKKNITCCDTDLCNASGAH
Assay: SPR (BIAcore), recombinant PSCA immobilized at 30 RU, mAb in solution

B1: anti-PSCA monoclonal antibody 1G8 (antibody, part only; not given: light chain, V domains shown, part only)
VH: CFFLMAVVIGVNSEVQLQQSGAELVRSGASVKLSCTASGFNIKDYYIHWVNQRPDQGLEWIGWIDPENGDTEFVPKFQGKATMTADIFSNTAYLHLSSLTSEDTAVYYCKTGGFWGQGTLVTVSAAKTTPPSVYPL
Kd: 1 nM
kon: 168000 M⁻¹ s⁻¹
